Results on two molecules are retold here after US20210205365A1, “Chimeric Growth Factor Receptors” (Instil Bio (UK) Ltd., priority 2018, published 2021).

One series has as its system circulating platelets. Particulars: 73 healthy volunteers, higher doses; cited from earlier work.
The subject of the next series is primary human T-cells. The series can be described thus: Eltrombopag and IL-2 on CrGFR sorted (CD110+) primary human T-cells, up to 7 days. It is filed as cell-based. Particulars: second donor (FIG. 12). The method, then:
FIG. 10—Analysis of Eltrombopag and IL-2 on CrGFR sorted primary human T-cells from Donor 4. Primary human T-cells from donor 4 were transduced with the WT TpoR or variant CrGFR, and enriched for expression by Miltenyi MACS technology selected for and incubated in the presence of IL2 or Eltrombopag. Cells were removed at time points up to 7 days and the number of cells expressing the receptor assessed using PE conjugated anti-CD110 antibodies, DRAQ7 viability dye and a MACSQuant analyser.
FIG. 11—Analysis of Eltrombopag and IL-2 on CrGFR sorted primary human T-cells from Donor 5. Primary human T-cells from donor 5 were transduced with the WT TpoR or variant CrGFR, and enriched for expression by Miltenyi MACS technology selected for and incubated in the presence of IL2 or Eltrombopag. Cells were removed at time points up to 7 days and the number of cells expressing the receptor assessed using PE conjugated anti-CD110 antibodies, DRAQ7 viability dye and a MACSQuant analyser.
FIG. 12—Analysis of Eltrombopag and IL-2 on CrGFR sorted primary human T-cells from Donor 6. Primary human T-cells from donor 6 were transduced with the WT TpoR or variant CrGFR, and enriched for expression by Miltenyi MACS technology selected for and incubated in the presence of IL2 or Eltrombopag. Cells were removed at time points up to 7 days and the number of cells expressing the receptor assessed using PE conjugated anti-CD110 antibodies, DRAQ7 viability dye and a MACSQuant analyser.
Paramagnetic bead sorts were conducted as per the manufacturers' instructions using either anti-PE microbeads (Miltenyi Biotec or StemCell Technologies), or T-cell isolation beads (17951: StemCell Technologies).
Next Applicants repeated the experiment but sorted the CrGFR+ cells using CD110+ selection by paramagnetic bead selection using the receptors identified from the first round of selections (FIGS. 10, 11 and 12). Applicants observed enhanced survival of T-cells engrafted with the majority of the CrGFR in all three donors. In particular Applicants saw expansion of WT-TpoR, TpOR.CD40, TpOR.IL2rγ and TpoR.LMP1-cyto cells in the second donor (FIG. 12) above that with media alone.

A short description of series [1]: Previous attempts to modify TpoR (surface expression, activity). It is filed as cell-based. Particulars: previously validated. The text has this:
However attempts to modify the receptor were not always straightforward. […] Furthermore, Applicants felt that they could improve the signalling capacity of TpoR-based receptors in T-cells by including signalling components which activate JAK3, a signalling molecule involved in IL-2 signalling but not in TpoR signalling, and therefore more likely to drive IL-2 like signals in engineered cells.
Applicants therefore aimed to generate fusion receptors wherein additional domains were fused directly to the C-terminus of the TpoR IC domain. Applicants first generated a fusion between TpoR and the IL2rβ signalling domain. […] Applicants therefore took an alternative approach where a hybrid TpoR-IL2rβ signalling domain was created whereby the I2rβ signalling region was fused N- or C-terminal to TpoR signalling domain. Next Applicants generated receptors where the cytoplasmic domain of TIAF1, TLR1, CD150, IL2rγ, CD40, LMP1 and ITAM1 from CD3ζ were fused C-terminal to the TpoR signalling domain. […] Applicants also generated CrGFR consisting of TpoR extracellular and transmembrane domain fused to the cytoplasmic domain of CD28 and CD137 as Applicants felt these would provide a costimulatory growth signal upon Eltrombopag administration, sequences of these constructs are provided below.

In a further series the test system is T-cells. To be noted: via administration of Tpo or Eltrombopag; cited from earlier work.

For the molecule `CC1=NN(c2ccc(C)c(C)c2)C(=O)/C1=N\Nc1cccc(-c2cccc(C(=O)O)c2)c1O` [Eltrombopag], the tolerability result with circulating platelets was “without tolerability problems”.

B1: WT TpoR: Wild type TpoR, SEQ ID NO: 1, 635 amino acids (protein, listed as Homo sapiens)
chain: MPSWALFMVTSCLLLAPQNLAQVSSQDVSLLASDSEPLKCFSRTFEDLTCFWDEEEAAPSGTYQLLYAYPREKPRACPLSSQSMPHFGTRYVCQFPDQEEVRLFFPLHLWVKNVFLNQTRTQRVLFVDSVGLPAPPSIIKAMGGSQPGELQISWEEPAPEISDFLRYELRYGPRDPKNSTGPTVIQLIATETCCPALQRPHSASALDQSPCAQPTMPWQDGPKQTSPSREASALTAEGGSCLISGLQPGNSYWLQLRSEPDGISLGGSWGSWSLPVTVDLPGDAVALGLQCFTLDLKNVTCQWQQQDHASSQGFFYHSRARCCPRDRYPIWENCEEEEKTNPGLQTPQFSRCHFKSRNDSIIHILVEVTTAPGTVHSYLGSPFWIHQAVRLPTPNLHWREISSGHLELEWQHPSSWAAQETCYQLRYTGEGHQDWKVLEPPLGARGGTLELRPRSRYRLQLRARLNGPTYQGPWSSWSDPTRVETATETAWISLVTALHLVLGLSAVLGLLLLRWQFPAHYRRLRHALWPSLPDLHRVLGQYLRDTAALSPPKATVSDTCEEVEPSLLEILPKSSERTPLPLCSSQAQMDYRRLQPSCLGTMPLSVCPPMAESGSCCTTHIANHSYLPLSYWQQP
modifications: MISC_FEATURE (1)..(491): TpoR Extracellular Domain; MISC_FEATURE (492)..(513): TpoR Transmembrane Domain; MISC_FEATURE (514)..(635): TpoR Cytoplasmic Domain
As to B1, in the series on primary human T-cells, the “expansion of CrGFR cells above that with media alone” value is recorded as “expansion”. The “activity in primary human T-cells” value in series [1] was “can have activity”. Besides, the “survival and expansion of engineered T-cells” value in the series with T-cells is “could permit controlled survival and expansion of T-cells”.
